In the supplement of paper PMC10567573:

B1: FBF1 (parent)
chain: YQRPQDSEDMWGDEDFTFGAYQPT

Variants of: B1
Assay: protein stability index of a GFP-peptide fusion (GPS, HEK-293T) (PSI 1-6); higher = more stable
Conditions: c terminus: a fixed tail appended
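Note: lentivirally expressed fusions sorted by FACS into six bins by GFP to DsRed ratio, PSI derived from sequencing read proportions per bin multiplied by bin number.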

Variant | protein stability index
YQRPQDSEDMWGDEDFTNGAYQPT [F18N] | 3.93
YQRPQDSEDMWGDEDFTQGAYQPT [F18Q] | 3.35
YQRPQDSEDMWGDEDFTMGAYQPT [F18M] | 3.25
YQRPQDSEDMWGDEDFTWGAYQPT [F18W] | 2.53
YQRPQDSEDMWGDEDFTGGAYQPT [F18G] | 3.6
YQRPQDSEDMWGDEDFTKGAYQPT [F18K] | 3.6
YQRPQDSEDMWGDEDFTYGAYQPT [F18Y] | 3.02
YQRPQDSEDMWGDEDFTEGAYQPT [F18E] | 3.62
YQRPQDSEDMWGDEDFTVGAYQPT [F18V] | 3.8
YQRPQDSEDMWGDEDFTRGAYQPT [F18R] | 3.61
YQRPQDSEDMWGDEDFTHGAYQPT [F18H] | 3.04
YQRPQDSEDMWGDEDFTCGAYQPT [F18C] | 3.19
YQRPQDSEDMWGDEDFTLGAYQPT [F18L] | 2.65
YQRPQDSEDMWGDEDFTSGAYQPT [F18S] | 3.98
YQRPQDSEDMWGDEDFTTGAYQPT [F18T] | 3.77
YQRPQDSEDMWGDEDFTDGAYQPT [F18D] | 3.9
YQRPQDSEDMWGDEDFTPGAYQPT [F18P] | 3.62
YQRPQDSEDMWGDEDFTAGAYQPT [F18A] | 3.43
YQRPQDSEDMWGDEKFTFGAYQPT [D15K] | 1.73
YQRPQDSEDMWGDELFTFGAYQPT [D15L] | 2.04
YQRPQDSEDMWGDECFTFGAYQPT [D15C] | 1.77
YQRPQDSEDMWGDESFTFGAYQPT [D15S] | 2.16
YQRPQDSEDMWGDEHFTFGAYQPT [D15H] | 2.05
YQRPQDSEDMWGDEPFTFGAYQPT [D15P] | 2.45

Variant | protein stability index
YQRPQDSEDMWGDEWFTFGAYQPT [D15W] | 1.78
YQRPQDSEDMWGDEEFTFGAYQPT [D15E] | 2.75
YQRPQDSEDMWGDEQFTFGAYQPT [D15Q] | 2.41
YQRPQDSEDMWGDEYFTFGAYQPT [D15Y] | 2.23
YQRPQDSEDMWGDEFFTFGAYQPT [D15F] | 1.52
YQRPQDSEDMWGDEVFTFGAYQPT [D15V] | 1.86
YQRPQDSEDMWGDEAFTFGAYQPT [D15A] | 2.31
YQRPQDSEDMWGDEGFTFGAYQPT [D15G] | 2.13
YQRPQDSEDMWGDENFTFGAYQPT [D15N] | 2.13
YQRPQDSEDMWGDETFTFGAYQPT [D15T] | 2.43
YQRPQDSEDMWGDEIFTFGAYQPT [D15I] | 2.11
YQRPQDSEDMWGDERFTFGAYQPT [D15R] | 2.15
YQRPQDSEDMWGDEMFTFGAYQPT [D15M] | 1.9
YQRPQDSEDMWGDEDATFGAYQPT [F16A] | 2.9
YQRPQDSEDMWGDEDQTFGAYQPT [F16Q] | 3.4
YQRPQDSEDMWGDEDSTFGAYQPT [F16S] | 3.29
YQRPQDSEDMWGDEDVTFGAYQPT [F16V] | 2.88
YQRPQDSEDMWGDEDKTFGAYQPT [F16K] | 2.87
YQRPQDSEDMWGDEDMTFGAYQPT [F16M] | 3.17
YQRPQDSEDMWGDEDRTFGAYQPT [F16R] | 2.73
YQRPQDSEDMWGDEDNTFGAYQPT [F16N] | 3.61
YQRPQDSEDMWGDEDPTFGAYQPT [F16P] | 2.71
YQRPQDSEDMWGDEDTTFGAYQPT [F16T] | 2.8
YQRPQDSEDMWGDEDWTFGAYQPT [F16W] | 2.73

Variant | protein stability index
YQRPQDSEDMWGDEDDTFGAYQPT [F16D] | 3.48
YQRPQDSEDMWGDEDGTFGAYQPT [F16G] | 3.23
YQRPQDSEDMWGDEDETFGAYQPT [F16E] | 3.73
YQRPQDSEDMWGDEDCTFGAYQPT [F16C] | 2.85
YQRPQDSEDMWGDEDYTFGAYQPT [F16Y] | 2.83
YQRPQDSEDMWGDEDHTFGAYQPT [F16H] | 3
YQRPQDSEDMWGDEDLTFGAYQPT [F16L] | 2.71
YQRPQDSEDMWGDEDITFGAYQPT [F16I] | 3.14
YQRPQDSEDMWGDEDFAFGAYQPT [T17A] | 3.46
YQRPQDSEDMWGDEDFWFGAYQPT [T17W] | 1.84
YQRPQDSEDMWGDEDFGFGAYQPT [T17G] | 3.01
YQRPQDSEDMWGDEDFLFGAYQPT [T17L] | 2.31
YQRPQDSEDMWGDEDFMFGAYQPT [T17M] | 2.59
YQRPQDSEDMWGDEDFQFGAYQPT [T17Q] | 3.44
YQRPQDSEDMWGDEDFCFGAYQPT [T17C] | 2.65
YQRPQDSEDMWGDEDFFFGAYQPT [T17F] | 2.53
YQRPQDSEDMWGDEDFDFGAYQPT [T17D] | 3.37
YQRPQDSEDMWGDEDFVFGAYQPT [T17V] | 3.07
YQRPQDSEDMWGDEDFIFGAYQPT [T17I] | 2.36
YQRPQDSEDMWGDEDFRFGAYQPT [T17R] | 2.68
YQRPQDSEDMWGDEDFSFGAYQPT [T17S] | 2.65
YQRPQDSEDMWGDEDFYFGAYQPT [T17Y] | 2.1
YQRPQDSEDMWGDEDFPFGAYQPT [T17P] | 2.93
YQRPQDSEDMWGDEDFEFGAYQPT [T17E] | 3.04

Variant | protein stability index
YQRPQDSEDMWGDEDFHFGAYQPT [T17H] | 2.86
YQRPQDSEDMWGDEDFKFGAYQPT [T17K] | 2.68
YQRPQDSEDMWGDEDFNFGAYQPT [T17N] | 3.04
YQRPQDSEDMWMDEDFTFGAYQPT [G12M] | 3.12
YQRPQDSEDMWQDEDFTFGAYQPT [G12Q] | 3.13
YQRPQDSEDMWCDEDFTFGAYQPT [G12C] | 2.28
YQRPQDSEDMWYDEDFTFGAYQPT [G12Y] | 2.55
YQRPQDSEDMWVDEDFTFGAYQPT [G12V] | 2.48
YQRPQDSEDMWADEDFTFGAYQPT [G12A] | 2.92
YQRPQDSEDMWHDEDFTFGAYQPT [G12H] | 2.85
YQRPQDSEDMWRDEDFTFGAYQPT [G12R] | 2.96
YQRPQDSEDMWLDEDFTFGAYQPT [G12L] | 2.28
YQRPQDSEDMWSDEDFTFGAYQPT [G12S] | 3.13
YQRPQDSEDMWPDEDFTFGAYQPT [G12P] | 3.79
YQRPQDSEDMWWDEDFTFGAYQPT [G12W] | 2.71
YQRPQDSEDMWKDEDFTFGAYQPT [G12K] | 2.37
YQRPQDSEDMWFDEDFTFGAYQPT [G12F] | 2.41
YQRPQDSEDMWTDEDFTFGAYQPT [G12T] | 2.55
YQRPQDSEDMWDDEDFTFGAYQPT [G12D] | 4.15
YQRPQDSEDMWNDEDFTFGAYQPT [G12N] | 3.17
YQRPQDSEDMWEDEDFTFGAYQPT [G12E] | 3.71
YQRPQDSEDMWIDEDFTFGAYQPT [G12I] | 2.43
